Values quoted from earlier work in PMC8690575.

Target: Rhodopsin (Mus musculus) (UniProt P15409)

- Kd: 150 µM
Substance: Arrestin-1 (from UniProt P20443)
